{
  "source": "paper PMC9352680",
  "about": "“A comprehensive thermodynamic model for RNA binding by the Saccharomyces cerevisiae Pumilio protein PUF4”",
  "data": [
    {"target": "T1, PUF4 RNA-binding domain (Saccharomyces cerevisiae, UniProt P25339 537-888)", "T1 sequence": "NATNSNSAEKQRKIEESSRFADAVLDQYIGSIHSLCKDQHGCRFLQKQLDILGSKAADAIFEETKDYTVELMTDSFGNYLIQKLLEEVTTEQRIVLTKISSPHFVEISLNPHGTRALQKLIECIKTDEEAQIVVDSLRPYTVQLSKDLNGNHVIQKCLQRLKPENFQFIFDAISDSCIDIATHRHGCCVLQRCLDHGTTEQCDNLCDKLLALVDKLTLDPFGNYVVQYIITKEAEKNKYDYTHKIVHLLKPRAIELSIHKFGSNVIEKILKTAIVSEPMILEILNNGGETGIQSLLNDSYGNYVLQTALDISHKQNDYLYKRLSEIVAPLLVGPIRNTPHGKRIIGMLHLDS", "assay": "Mg; RNA-MaP; 20 mM Na-HEPES pH 7.4, 30 mM KOAc, 0.75 mM MgCl2, 0.1% Tween-20, 5% glycerol, 0.1 mg/mL BSA, 2 mM DTT; 25 C; 0.0125-409.6 nM protein", "settings": "tags: N-His6-TEV cleaved; C-SNAP kept, Cy3B-labelled; label: tethered on chip by stalled RNA polymerase", "units": {"Kd": "nM"}, "values": [
      {"binder": "UCUCUUGUUAUAUAUUAUCUCUCUU (ssRNA)", "note": "[Id_ii_S1_P4E.3_K4.2_C4.2_[C-2G]_H4.2_A4.1_F4.1_T4.2_[G10T]_[T11C]]", "Kd": 12.5},
      {"binder": "UCUCUUGUUAUAUAUUACUUCUCUU (ssRNA)", "note": "[Id_ii_S1_P4E.3_K4.2_C4.2_[C-2G]_H4.2_A4.1_F4.1_T4.2_[G10C]]", "Kd": 16.9},
      {"binder": "UCUCUUUGUGUGUUAUCUCUU (ssRNA)", "note": "[Ib_S1_P4E.1_K4.1_C4.1_H4.1_[A4G]_A4.1_[A6G]_F4.1_T4.1]", "Kd": 43.8},
      {"binder": "UCUCUUUCUAUAUAUUAAUUCUCUU (ssRNA)", "note": "[Id_ii_S1_P4E.3_K4.2_C4.2_[C-2T]_[T-1C]_H4.2_A4.1_F4.1_T4.2_[G10A]]", "Kd": 39.7},
      {"binder": "UCUCUUUAUAUAUAUUACAUCUCUU (ssRNA)", "note": "[Id_ii_S1_P4E.3_K4.2_C4.2_[C-2T]_[T-1A]_H4.2_A4.1_F4.1_T4.2_[G10C]_[T11A]]", "Kd": 28.9},
      {"binder": "UCUCUUGUUAUAUAUUAGUUCUCUU (ssRNA)", "note": "[Id_ii_S1_P4E.3_K4.2_C4.2_[C-2G]_H4.2_A4.1_F4.1_T4.2]", "Kd": 8.13},
      {"binder": "UCUCUUUAUAUAUAUUAACUCUCUU (ssRNA)", "note": "[Id_ii_S1_P4E.3_K4.2_C4.2_[C-2T]_[T-1A]_H4.2_A4.1_F4.1_T4.2_[G10A]_[T11C]]", "Kd": 15.7},
      {"binder": "UCUCUUUAUAUAUAUUACCUCUCUU (ssRNA)", "note": "[Id_ii_S1_P4E.3_K4.2_C4.2_[C-2T]_[T-1A]_H4.2_A4.1_F4.1_T4.2_[G10C]_[T11C]]", "Kd": 29.6},
      {"binder": "UCUCUUUGUAUAUAUUAAGUCUCUU (ssRNA)", "note": "[Id_ii_S1_P4E.3_K4.2_C4.2_[C-2T]_[T-1G]_H4.2_A4.1_F4.1_T4.2_[G10A]_[T11G]]", "Kd": 8.46},
      {"binder": "UCUCUUUCUAUAUAUUAAGUCUCUU (ssRNA)", "note": "[Id_ii_S1_P4E.3_K4.2_C4.2_[C-2T]_[T-1C]_H4.2_A4.1_F4.1_T4.2_[G10A]_[T11G]]", "Kd": 130},
      {"binder": "UCUCUUGCUAUAUAUUAUAUCUCUU (ssRNA)", "note": "[Id_ii_S1_P4E.3_K4.2_C4.2_[C-2G]_[T-1C]_H4.2_A4.1_F4.1_T4.2_[G10T]_[T11A]]", "Kd": 57.3},
      {"binder": "UCUCUUUCUAUAUAUUACCUCUCUU (ssRNA)", "note": "[Id_ii_S1_P4E.3_K4.2_C4.2_[C-2T]_[T-1C]_H4.2_A4.1_F4.1_T4.2_[G10C]_[T11C]]", "Kd": 25.2},
      {"binder": "UCUCUUUGUAUAUAUUAGUUCUCUU (ssRNA)", "note": "[Id_ii_S1_P4E.3_K4.2_C4.2_[C-2T]_[T-1G]_H4.2_A4.1_F4.1_T4.2]", "Kd": 3.67},
      {"binder": "UCUCUUUGUAUAUAUUAGCUCUCUU (ssRNA)", "note": "[Id_ii_S1_P4E.3_K4.2_C4.2_[C-2T]_[T-1G]_H4.2_A4.1_F4.1_T4.2_[T11C]]", "Kd": 3.46},
      {"binder": "UCUCUUUAUAUAUAUUAGUUCUCUU (ssRNA)", "note": "[Id_ii_S1_P4E.3_K4.2_C4.2_[C-2T]_[T-1A]_H4.2_A4.1_F4.1_T4.2]", "Kd": 9.8},
      {"binder": "UCUCUUUUUAUAUAUUAGUUCUCUU (ssRNA)", "note": "[Id_ii_S1_P4E.3_K4.2_C4.2_[C-2T]_H4.2_A4.1_F4.1_T4.2]", "Kd": 8.51},
      {"binder": "UCUCUUAGUAUAUAUUAUCUCUCUU (ssRNA)", "note": "[Id_ii_S1_P4E.3_K4.2_C4.2_[C-2A]_[T-1G]_H4.2_A4.1_F4.1_T4.2_[G10T]_[T11C]]", "Kd": 43},
      {"binder": "UCUCUUUGUCUGUUAUCUCUU (ssRNA)", "note": "[Ib_S1_P4E.1_K4.1_C4.1_H4.1_[A4C]_A4.1_[A6G]_F4.1_T4.1]", "Kd": 626},
      {"binder": "UCUCUUUAUAUAUAUUACUUCUCUU (ssRNA)", "note": "[Id_ii_S1_P4E.3_K4.2_C4.2_[C-2T]_[T-1A]_H4.2_A4.1_F4.1_T4.2_[G10C]]", "Kd": 20.6},
      {"binder": "UCUCUUUGUUAAUUAUCUCUU (ssRNA)", "note": "[Ib_S1_P4E.1_K4.1_C4.1_H4.1_[A4T]_A4.1_[T5A]_F4.1_T4.1]", "Kd": 43.5},
      {"binder": "UCUCUUUGUUCAUUAUCUCUU (ssRNA)", "note": "[Ib_S1_P4E.1_K4.1_C4.1_H4.1_[A4T]_A4.1_[T5C]_F4.1_T4.1]", "Kd": 21.1},
      {"binder": "UCUCUUUAUAUAUAUUACGUCUCUU (ssRNA)", "note": "[Id_ii_S1_P4E.3_K4.2_C4.2_[C-2T]_[T-1A]_H4.2_A4.1_F4.1_T4.2_[G10C]_[T11G]]", "Kd": 21.9},
      {"binder": "UCUCUUUUUAUAUAUUAAUUCUCUU (ssRNA)", "note": "[Id_ii_S1_P4E.3_K4.2_C4.2_[C-2T]_H4.2_A4.1_F4.1_T4.2_[G10A]]", "Kd": 28.9},
      {"binder": "UCUCUUUUUAUAUAUUAGGUCUCUU (ssRNA)", "note": "[Id_ii_S1_P4E.3_K4.2_C4.2_[C-2T]_H4.2_A4.1_F4.1_T4.2_[T11G]]", "Kd": 22.6},
      {"binder": "UCUCUUUUUAUAUAUUAUGUCUCUU (ssRNA)", "note": "[Id_ii_S1_P4E.3_K4.2_C4.2_[C-2T]_H4.2_A4.1_F4.1_T4.2_[G10T]_[T11G]]", "Kd": 17.9},
      {"binder": "UCUCUUGUUAUAUAUUAUGUCUCUU (ssRNA)", "note": "[Id_ii_S1_P4E.3_K4.2_C4.2_[C-2G]_H4.2_A4.1_F4.1_T4.2_[G10T]_[T11G]]", "Kd": 15.3},
      {"binder": "UCUCUUGCUAUAUAUUAUUUCUCUU (ssRNA)", "note": "[Id_ii_S1_P4E.3_K4.2_C4.2_[C-2G]_[T-1C]_H4.2_A4.1_F4.1_T4.2_[G10T]]", "Kd": 29.8},
      {"binder": "UCUCUUUUUAUAUAUUACGUCUCUU (ssRNA)", "note": "[Id_ii_S1_P4E.3_K4.2_C4.2_[C-2T]_H4.2_A4.1_F4.1_T4.2_[G10C]_[T11G]]", "Kd": 30.1},
      {"binder": "UCUCUUUCUAUAUAUUAUAUCUCUU (ssRNA)", "note": "[Id_ii_S1_P4E.3_K4.2_C4.2_[C-2T]_[T-1C]_H4.2_A4.1_F4.1_T4.2_[G10T]_[T11A]]", "Kd": 34.9},
      {"binder": "UCUCUUUUUAUAUAUUAACUCUCUU (ssRNA)", "note": "[Id_ii_S1_P4E.3_K4.2_C4.2_[C-2T]_H4.2_A4.1_F4.1_T4.2_[G10A]_[T11C]]", "Kd": 31.8},
      {"binder": "UCUCUUUCUAUAUAUUACAUCUCUU (ssRNA)", "note": "[Id_ii_S1_P4E.3_K4.2_C4.2_[C-2T]_[T-1C]_H4.2_A4.1_F4.1_T4.2_[G10C]_[T11A]]", "Kd": 23.1},
      {"binder": "UCUCUUACUAUAUAUUACGUCUCUU (ssRNA)", "note": "[Id_ii_S1_P4E.3_K4.2_C4.2_[C-2A]_[T-1C]_H4.2_A4.1_F4.1_T4.2_[G10C]_[T11G]]", "Kd": 51.9}
    ]}
  ]
}
